Data published in US20160207963A1 (GlaxoSmithKline, published 2016).

B1: 1A2 Fab (Fab, V domains shown)
VH: EVQLQQSGPELVKPGASVKMSCKASGYTFTSFIMYWVKQKPGQGLEWLGYIDPYNDGTKYNEKFEGKATLTSDKSSSTAYMELSSLTSEDSAVYYCAKRGNYGNGFAYWGQGTLVTVSA
VL: DIVMTQSQKFVSTSVGDRVSVTCKASQNVGSNVAWYQHKPGHSPTALIYSASHRYSGVPDRFTGSESGTDFTLTISNVQSEDLAEYFCQQYYSYPYTFGGGTKLEIKR
B2: mouse IgG 1A2 (antibody, V domains shown)
VH: EVQLQQSGPELVKPGASVKMSCKASGYTFTSFIMYWVKQKPGQGLEWLGYIDPYNDGTKYNEKFEGKATLTSDKSSSTAYMELSSLTSEDSAVYYCAKRGNYGNGFAYWGQGTLVTVSA
VL: DIVMTQSQKFVSTSVGDRVSVTCKASQNVGSNVAWYQHKPGHSPTALIYSASHRYSGVPDRFTGSESGTDFTLTISNVQSEDLAEYFCQQYYSYPYTFGGGTKLEIKR

Key:
[1] = target: purified, his-tag depleted, recombinant Viet04 HA trimers (influenza A virus A/Vietnam/1203/04 …, UniProt Q6J8F6 17-531); assay: complex formation, size exclusion gel filtration (Superdex 200)
Vietnam Wt (HA1) = Vietnam Wt (HA1) (influenza A virus A/Vietnam/1203/04 …, UniProt Q6J8F6 17-346); assay: biolayer interferometry (ForteBio), HA1 on biosensors probed with IgG 10 µg/ml

Binder	binding result [1]	binding result (Vietnam Wt (HA1))
B1	binds	–
B2	–	binds
